Measured values from the RNAGym collection of RNA variant scans (doi:10.1073/pnas.2313332121).

B1: TPR t1 (parent)
chain: GACCAAUCUGCCCUCAGAGCUCGAGAACAUCUUCGGAUGCAGAGGAGGCAGGCUUCGGUGGCGCGAUAGCGCCAACGUCCUCAACCUCCAAUGCAUCCCACCACAUGAUGAUGCCUGAAGAGCCUUGGUUUUUUG

Variants of: B1
Assay: polymerase ribozyme fitness, log enrichment relative to wild type (log ratio); higher = more active; in vitro selection for triplet polymerase activity
Outline: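 Only genotypes with ≥10 input reads and ≥1 read per output were kept after Illumina sequencing of input and output libraries. These libraries were PCR-built, transcribed mutants of each subunit of a heterodimeric triplet polymerase ribozyme, each put through one triplicate in vitro selection round with frozen incubation at −7 °C, gel excision of extended constructs, streptavidin-bead capture and RT-PCR. Fitness is a logarithmic ratio of genotype enrichment to wild-type enrichment, from inverse-variance-weighted replicate averages, with the logarithm in base 2.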

Variant | polymerase ribozyme fitness (log ratio)
GACCAAUCUGCUCUCAGAGCUCGAGAACAUCUUCGGAUGCAGAGGAGGCAGGCUUCGGUGGCGCGAUAGCGCCAACGUCCUCAACCUCCAAUGCAUCCCACCACAUGAUGAUGCCUAAAGAGCCUUCGUUUUUUG [C12U G117A G127C] | -0.67
GACCAAUCUGCUCUCAGAGCUCGAGAACAUCUUCGGAUGCAGAGGAGGCAGGCUUCGGUGGCGCGAUAGCGCCAACGUCCUCAACCUCCAAUGCAUCCCACCACAUGAUGAUCCCUGAAUAGCCUUGGUUUUUUG [C12U G113C G120U] | -3.12
GACCAAUCUGCUCCGAGAGCUCGAGAACAUCUUCGGAUGCCGAGGAGGCAGGCUUCGGUGGCGCGAUAGCGCCAACGUCCUCAACCUCCAAUGCAUCCCACCACAUGAUGAAGCCUGAAGAGCCUUGGUUUUUUG [C12U U14C C15G A41C U112A] | -2.25
GACCAAUCUGCUCUCAGAGCUCGAGAACAUCUUCGGAUGCAGAGGAGGCAGGCUUCGGUGGCGCGAUAUCGCCAACAUCCUCAACCUCCAAUGCAUCCCACCACAUGAUGAUGCCUGAAGAGCCUUGGUUUUUUG [C12U G69U G77A] | 0.767
GACCAAUCUGCUCUCAGAGCUCGAGAACAUCUUCGGAUGCAGAGGAGGCAGGCUUCGGUGGCGCGAUAGCGCCAACCUCCGCAACCUCCAAUGCAUCCCACCACAUGAUGAUGCCUGAAGAGCCUUGGUUUUUUG [C12U G77C U81G] | -1.21
GACCAAUCUGCUCUCAGAGCUCGAGAACAUCUUCGGAUGCAGAGGAGGCAGGCUUCGGUGGCGCGAUAGCCCCAACGUCCUCAACCUCCAAUGCAUUCCACCACAUGAUGAUGCCUGAAGAGCCUUGGUUUUUUG [C12U G71C C97U] | -0.967
GACCAAUCUGCUCUCAGAGCUCGAGAACAUCUUCGGAUGCAGAGGAGGCAGGCUUCGGUGGCGCGAUAGCGCCAACGUCCUCAACCUCCAAUUCAUCCCACCACAUGAUGAUGCCUGAAGAGCCUUGGUUUUUUG [C12U G93U] | -0.871
GACCAAUCUGCUCUCAGAGCUCGAGAACAUCUUCGGAUGCAGAGGAGGCAGGCUUCGGUGGCGCGAUAGCGCCAACGUCCUCAACCUCCAAUACAUCCCACCACAUGAUGAUGCCUGAAGAGCCUUGGUUUUUUG [C12U G93A] | -0.0469
GACCAAUCUGCUCUCAGAGCUCGAGAACAUCUUCGGAUGCAGAGGAGGCAGGCUUCGGUGGCGCGAUAGCUCCAACGUCCUCAACCUCCGAUGCAUCCCACCACAUGAUGAUGCCUGAAGGGCCUUGGUUUUUUG [C12U G71U A90G A121G] | 1.71
GACCAAUCUGCUCUCAGAGCUCGAGAACAUCUUCGGAUGCAGAGGAGGCAGGCUUCGGUGGCGCGAUAGCGCCAACGUCCUCAACCUCCAAUGCAUCCCACCACAUGAUAAUGCCUGAAGAGCCUUGGUUUUUUG [C12U G110A] | 0.122
GACCAAUCUGCUCUCAGAGCUCGAGAACAUCUUCGGAUGCAGAGGAGGCAGGCUUCGGUGGCGCGAUAGCGCCAACGUCCUCAACCUCCAAUGCAUCCCACCACAUGAUCAUGCCUGAAGAGCCUUGGUUUUUUG [C12U G110C] | -2.23
GACCAAUCUGCUCUCAGAGCACGAGAACAUCUUCGGAUGGAGAGGAGGCAGGCUUCGGUGGCGCGAUAGCGCCAACGUCCUCAACCUCGAAUGCAUCCCACCACAUGAUGAUGCCUGAAGGGCCUUGGUUUUUUG [C12U U21A C40G C89G A121G] | -1.38
GACCAAUCUGCUCUCAGAGCUCGAGAACAUCUUCGGAUGCAGAGGAGGCAGGCUUCGGUGGCUCGAUAGCGCCACCGUCCUCAACCUCCAAUGCAUCCCACCACAUGAUGAUGCCUGAAGAGCCUUGGUUUUUUG [C12U G63U A75C] | -0.74
GACCAAUCUGCUCUCAGAGCUCGAGAACAUCUUCGGAUGCAGAGGAGGCAGGCUUCGGUGGCUCGAUCGCGCCAACGUCCUCAACCUCCAAUGCAUCCCACCACAUGAUGAUGCCUGAAGAGUCUUGGUUUUUUG [C12U G63U A68C C123U] | -4.7
GACCAAUCUGCUCUCAGAGCGCGAGAACAUCUUCGGAUGCAGAGGAGGCAGGUUUCGGUGGCGCGAUCGCGCCAACGUCCUCAACCUCCAAUGCAUCCCACCACAUGAUGAUGCCUGAAGAGCAUUGGUUUUUUG [C12U U21G C53U A68C C124A] | -6.61
GACCAAUCUGCUCUCAGAGCUCGAGAACAUCUUCGGAUGCAGAGGAGGCAGGCUUCGGUGGCGCGAUAGCUCCAACGUCCUCAACCUCCAAUGCAUCCCACCACAUGAUGAUGCCUGAAGAGCCUUGGUUUUUUG [C12U G71U] | 0.0835
GACCAAUCUGCUCUCAGAGCUCGAGAACAUCUUCGGAUGCAGAGGAGGCAGGCUUCGGUGGCGCGAUAUCGCCAACGUCCUCAACCUCCAAUGCAUCCCACCACAUGAUGAUGCCUGAAGAGCCUUGGUUUUUUG [C12U G69U] | 1.01
GACCAAUCUGCUCUCAGAGCUCGAGAACAUCUUCGGAUGCAGAGGAGGCAGGCUUCGGUGGCGCGAUAGCGCCAACGUCCUCAACCUCCAAUGCAUCCCACCACAUGAUGAUUCCUGAAGAGCCUUGGUUUUUUG [C12U G113U] | -1.65
GACCAAUCUGCUCUCAGAGCUCGAGAACAUCUUCGGAUGCAGAGGAGGCAGGCUUCGGUGGCGCGAUAGCGCCAACGUCCUCAACCUCCAAUGCAUCCCACCACAUGAUGAUACCUGAAGAGCCUUGGUUUUUUG [C12U G113A] | 0.642
GACCAAUCUGCUCUCAGAGCACGAGAACAUCUUCAGAUGCAGAGGAGGCAGGCUUCGGUGGCGCGAUAGCGCCGACGUCCUCAACCUCCAAUGCAUCCCACCACAUGAUGAUGCCUGAAGAGCCUUGGUUUUUUG [C12U U21A G35A A74G] | -4.28
GACCAAUCUGCUCUCAGAGCUCGAGAACAUCUUCGGAUGCAGAGGAGGCAGGCUUCGGUGGCGCGAUAGCACCAACGUCCUCAACCUCCAAGGCAACCCACCACAUGAUGAUGCCUGAAGAGCCUUGGUUUUUUG [C12U G71A U92G U96A] | -5.06
